Test results published in patent publication US20180155451A1 (published 2018).

Key:
[1] = target: T1, FcγRIIa R (human FcγRIIa, allotype R, Arg at position 131), extracellular domain with C-terminal His tag (human, UniProt P12318 34-217); assay: SPR (Biacore), relative binding vs GpH7-B3/GpL16-k0
T1 construct: extracellular domain; expressed in FreeStyle293 cells; analyte in Biacore; also called 2aR; FcgRIIa R
T1 sequence (looked up): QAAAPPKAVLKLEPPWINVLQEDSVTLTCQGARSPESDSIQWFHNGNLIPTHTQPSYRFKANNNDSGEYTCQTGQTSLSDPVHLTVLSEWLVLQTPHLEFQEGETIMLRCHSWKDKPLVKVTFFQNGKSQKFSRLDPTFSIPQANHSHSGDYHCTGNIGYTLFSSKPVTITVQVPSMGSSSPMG
Procedure: (§1) Analysis of interaction between objective antibody and the FcγR was carried out using Biacore T100 (GE Healthcare). HBS-EP+ (GE Healthcare) was used as the running buffer, and the measurement temperature was set to 25° C. Chips produced by immobilizing the antigen peptide by the amine coupling method to a Series S Sencor Chip CM5 (GE Healthcare), or alternatively, chips produced by allowing preliminarily biotinylated antigen peptides to interact with and immobilize onto a Series S Sensor Chip SA (certified) (GE Healthcare) were used. Antibodies of interest were captured onto an antigen peptide-immobilized chip, and allowed to interact to each FcγR diluted with running buffer. To regenerate and repeatedly use the chip, the antibodies captured on the chip were washed off by reacting 10 mM glycine-HCl, pH 1.5.
(§2) The FcγR-binding activity of each antibody was assessed primarily using as an indicator the FcγR-binding activity and dissociation constant for FcγR.

[2] = target: T2, FcγRIIIa extracellular domain with C-terminal His tag (human, UniProt P08637 17-208); assay: SPR relative binding; GpH7-A5/GpH7-B3/GpL16-k0 = 100
T2 construct: extracellular domain; also called FcgRIIIa; 3a; not shown: His tag at the C terminus
T2 sequence (P08637 17-208): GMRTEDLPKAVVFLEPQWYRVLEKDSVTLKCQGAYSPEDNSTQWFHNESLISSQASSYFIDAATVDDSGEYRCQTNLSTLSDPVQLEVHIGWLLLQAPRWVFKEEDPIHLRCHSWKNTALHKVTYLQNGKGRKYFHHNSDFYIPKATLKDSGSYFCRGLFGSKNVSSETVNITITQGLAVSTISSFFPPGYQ
Procedure: as §1, §2

Row | Binder | Ho/Con_2aR [1] | He/Con_3a [2]
1 | GpH7-B3 variant Y300_18N/GpL16-k0 (antibody, human IgG1, kappa, homodimerized antibody, mutation in both H chains; also called Ho Ab) heavy: not shown light: DIVMTQSPLSLPVTPGEPASISCQASESLVHSNRNTYLHWYLQKPGQSPQLLIYKVSNRFSGVPDRFSGSGSGTDFTLKISRVEAEDVGVYYCSQNTHVPPTFGQGTKVEIERTVAAPSVFIFPPSDEQLKSGTASVVCLLNNFYPREAKVQWKVDNALQSGNSQESVTEQDSKDSTYSLSSTLTLSKADYEKHKVYACEVTHQGLSSPVTKSFNRGEC | 87.6 relative, control = 100 | –
2 | GpH7-A5/GpH7-B3 variant E333_04F/GpL16-k0 (antibody, human IgG1, kappa, also called He Ab E333_04F) heavy 1: not shown heavy 2: not shown light: DIVMTQSPLSLPVTPGEPASISCQASESLVHSNRNTYLHWYLQKPGQSPQLLIYKVSNRFSGVPDRFSGSGSGTDFTLKISRVEAEDVGVYYCSQNTHVPPTFGQGTKVEIERTVAAPSVFIFPPSDEQLKSGTASVVCLLNNFYPREAKVQWKVDNALQSGNSQESVTEQDSKDSTYSLSSTLTLSKADYEKHKVYACEVTHQGLSSPVTKSFNRGEC | – | 101 % of control
3 | GpH7-A5/GpH7-B3 variant E333_02A/GpL16-k0 (antibody, human IgG1, kappa, also called He Ab E333_02A) heavy 1: not shown heavy 2: not shown light: DIVMTQSPLSLPVTPGEPASISCQASESLVHSNRNTYLHWYLQKPGQSPQLLIYKVSNRFSGVPDRFSGSGSGTDFTLKISRVEAEDVGVYYCSQNTHVPPTFGQGTKVEIERTVAAPSVFIFPPSDEQLKSGTASVVCLLNNFYPREAKVQWKVDNALQSGNSQESVTEQDSKDSTYSLSSTLTLSKADYEKHKVYACEVTHQGLSSPVTKSFNRGEC | – | 105 % of control
4 | GpH7-A5/GpH7-B3 variant H268_02A/GpL16-k0 (antibody, human IgG1, kappa, also called He Ab H268_02A) heavy 1: not shown heavy 2: not shown light: DIVMTQSPLSLPVTPGEPASISCQASESLVHSNRNTYLHWYLQKPGQSPQLLIYKVSNRFSGVPDRFSGSGSGTDFTLKISRVEAEDVGVYYCSQNTHVPPTFGQGTKVEIERTVAAPSVFIFPPSDEQLKSGTASVVCLLNNFYPREAKVQWKVDNALQSGNSQESVTEQDSKDSTYSLSSTLTLSKADYEKHKVYACEVTHQGLSSPVTKSFNRGEC | – | 122 % of control
5 | GpH7-B3 variant Y296_16H/GpL16-k0 (antibody, human IgG1, kappa, homodimerized antibody, mutation in both H chains; also called Ho Ab) heavy: not shown light: DIVMTQSPLSLPVTPGEPASISCQASESLVHSNRNTYLHWYLQKPGQSPQLLIYKVSNRFSGVPDRFSGSGSGTDFTLKISRVEAEDVGVYYCSQNTHVPPTFGQGTKVEIERTVAAPSVFIFPPSDEQLKSGTASVVCLLNNFYPREAKVQWKVDNALQSGNSQESVTEQDSKDSTYSLSSTLTLSKADYEKHKVYACEVTHQGLSSPVTKSFNRGEC | 89.5 relative, control = 100 | –
6 | GpH7-A5/GpH7-B3 variant I332_01G/GpL16-k0 (antibody, human IgG1, kappa, also called He Ab I332_01G) heavy 1: not shown heavy 2: not shown light: DIVMTQSPLSLPVTPGEPASISCQASESLVHSNRNTYLHWYLQKPGQSPQLLIYKVSNRFSGVPDRFSGSGSGTDFTLKISRVEAEDVGVYYCSQNTHVPPTFGQGTKVEIERTVAAPSVFIFPPSDEQLKSGTASVVCLLNNFYPREAKVQWKVDNALQSGNSQESVTEQDSKDSTYSLSSTLTLSKADYEKHKVYACEVTHQGLSSPVTKSFNRGEC | – | 111 % of control
7 | GpH7-A5/GpH7-B3 variant I332_06M/GpL16-k0 (antibody, human IgG1, kappa, also called He Ab I332_06M) heavy 1: not shown heavy 2: not shown light: DIVMTQSPLSLPVTPGEPASISCQASESLVHSNRNTYLHWYLQKPGQSPQLLIYKVSNRFSGVPDRFSGSGSGTDFTLKISRVEAEDVGVYYCSQNTHVPPTFGQGTKVEIERTVAAPSVFIFPPSDEQLKSGTASVVCLLNNFYPREAKVQWKVDNALQSGNSQESVTEQDSKDSTYSLSSTLTLSKADYEKHKVYACEVTHQGLSSPVTKSFNRGEC | – | 101 % of control
8 | GpH7-A5/GpH7-B3 variant E333_13S/GpL16-k0 (antibody, human IgG1, kappa, also called He Ab E333_13S) heavy 1: not shown heavy 2: not shown light: DIVMTQSPLSLPVTPGEPASISCQASESLVHSNRNTYLHWYLQKPGQSPQLLIYKVSNRFSGVPDRFSGSGSGTDFTLKISRVEAEDVGVYYCSQNTHVPPTFGQGTKVEIERTVAAPSVFIFPPSDEQLKSGTASVVCLLNNFYPREAKVQWKVDNALQSGNSQESVTEQDSKDSTYSLSSTLTLSKADYEKHKVYACEVTHQGLSSPVTKSFNRGEC | – | 103 % of control
9 | GpH7-A5/GpH7-B3 variant A330_07I/GpL16-k0 (antibody, human IgG1, kappa, also called He Ab A330_07I) heavy 1: not shown heavy 2: not shown light: DIVMTQSPLSLPVTPGEPASISCQASESLVHSNRNTYLHWYLQKPGQSPQLLIYKVSNRFSGVPDRFSGSGSGTDFTLKISRVEAEDVGVYYCSQNTHVPPTFGQGTKVEIERTVAAPSVFIFPPSDEQLKSGTASVVCLLNNFYPREAKVQWKVDNALQSGNSQESVTEQDSKDSTYSLSSTLTLSKADYEKHKVYACEVTHQGLSSPVTKSFNRGEC | – | 103 % of control
10 | GpH7-B3 variant Y296_19Q/GpL16-k0 (antibody, human IgG1, kappa, homodimerized antibody, mutation in both H chains; also called Ho Ab) heavy: not shown light: DIVMTQSPLSLPVTPGEPASISCQASESLVHSNRNTYLHWYLQKPGQSPQLLIYKVSNRFSGVPDRFSGSGSGTDFTLKISRVEAEDVGVYYCSQNTHVPPTFGQGTKVEIERTVAAPSVFIFPPSDEQLKSGTASVVCLLNNFYPREAKVQWKVDNALQSGNSQESVTEQDSKDSTYSLSSTLTLSKADYEKHKVYACEVTHQGLSSPVTKSFNRGEC | 88.9 relative, control = 100 | –
